Data as given in US10227388B2, “Peptides and combination of peptides for use in immunotherapy against non-small cell lung cancer and other cancers” (immatics biotechnologies GmbH, priority 2015, dated 2019).

Target: HLA-A*02:01 (Homo sapiens, UniProt P04439, D140Y/D185E/D98H/E176V/E277Q/G131W/G231S/I119V/I121R/I166T/I218V/L300P/L318F/N151K/N90K/P208A/P217A/Q86G/Q94H/R138H/R169H/T345S)
Assay: MHC binding assay (UV-ligand exchange, ELISA, peptide exchange yield)
Conditions: binding of HLA-class I restricted peptides to HLA-A*02:01
Outline: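 Peptide–HLA-A*02:01 complexes made by UV-ligand exchange of a UV-cleavable peptide for the test peptide. Exchange yield measured by ELISA: 100-fold diluted monomers captured on streptavidin, 1 h at 37° C., detected with HRP anti-β2m and TMB, absorbance at 450 nm.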

Substance | Peptide exchange (MHC class I binding score, peptide exchange yield)
24 (SLSDGLEEV; listed as Homo sapiens) [compound 24] | ″++″ (≥20% = ++)
180 (FQIDPHSGLVTV; listed as Homo sapiens) [compound 180] | ″++″ (≥20% = ++)
192 (KMLDGASFTL; listed as Homo sapiens) [compound 192] | ″+++″ (≥50% = +++)
137 (TLVLTLPTV; listed as Homo sapiens) [compound 137] | ″++++″ (≥75% = ++++)
117 (ILPDGEDFLAV; listed as Homo sapiens) [compound 117] | ″+++″ (≥50% = +++)
240 (ILLEQAFYL; listed as Homo sapiens) [compound 240] | ″+++″ (≥50% = +++)
188 (GLFPVTPEAV; listed as Homo sapiens) [compound 188] | ″+++″ (≥50% = +++)
55 (SLLDLETLSL; listed as Homo sapiens) [compound 55] | ″++++″ (≥75% = ++++)
135 (ALSEVDFQL; listed as Homo sapiens) [compound 135] | ″+++″ (≥50% = +++)
167 (KVLEVTEEFGV; listed as Homo sapiens) [compound 167] | ″+++″ (≥50% = +++)
178 (ALTEIAFVV; listed as Homo sapiens) [compound 178] | ″++++″ (≥75% = ++++)
194 (ALPLFVITV; listed as Homo sapiens) [compound 194] | ″+++″ (≥50% = +++)
72 (SLLELDGINL; listed as Homo sapiens) [compound 72] | ″+++″ (≥50% = +++)
158 (KLFDVDEDGYI; listed as Homo sapiens) [compound 158] | ″+++″ (≥50% = +++)
66 (FLDENIGGVAV; listed as Homo sapiens) [compound 66] | ″+++″ (≥50% = +++)
34 (ILVEADSLWVV; listed as Homo sapiens) [compound 34] | ″+++″ (≥50% = +++)
182 (MLLEAPGIFL; listed as Homo sapiens) [compound 182] | ″+++″ (≥50% = +++)
121 (GVVDPRAISVL; listed as Homo sapiens) [compound 121] | ″++″ (≥20% = ++)
174 (ALAQYLITA; listed as Homo sapiens) [compound 174] | ″+++″ (≥50% = +++)
92 (YLIPFTGIVGL; listed as Homo sapiens) [compound 92] | ″++″ (≥20% = ++)
122 (FLLAEDDIYL; listed as Homo sapiens) [compound 122] | ″+++″ (≥50% = +++)
197 (ALGPEGGRV; listed as Homo sapiens) [compound 197] | ″++″ (≥20% = ++)
127 (KIGDEPPKV; listed as Homo sapiens) [compound 127] | ″++″ (≥20% = ++)
162 (YQQAQVPSV; listed as Homo sapiens) [compound 162] | ″+++″ (≥50% = +++)
136 (YLADPSNLFVV; listed as Homo sapiens) [compound 136] | ″+++″ (≥50% = +++)
187 (RQISIRGIVGV; listed as Homo sapiens) [compound 187] | ″+++″ (≥50% = +++)
13 (YLMDESLNL; listed as Homo sapiens) [compound 13] | ″+++″ (≥50% = +++)
223 (ALLENIALYL; listed as Homo sapiens) [compound 223] | ″+++″ (≥50% = +++)
221 (ALYEEGLLL; listed as Homo sapiens) [compound 221] | ″++″ (≥20% = ++)
229 (RLPGPLGTV; listed as Homo sapiens) [compound 229] | ″++″ (≥20% = ++)

Now from value to substance:

Peptide exchange (MHC class I binding score, peptide exchange yield) | Substance
″+++″ (≥50% = +++) | 456 (LLIGHLERV; listed as Homo sapiens) [compound 456]
″+++″ (≥50% = +++) | 492 (SLFDGFADGLGV; listed as Homo sapiens) [compound 492]
″+++″ (≥50% = +++) | 457 (SLLPGNLVEKV; listed as Homo sapiens) [compound 457]
″++++″ (≥75% = ++++) | 320 (KMFEFVEPLL; listed as Homo sapiens) [compound 320]
″+++″ (≥50% = +++) | 622 (RLLGEEVVRVLQA; listed as Homo sapiens) [compound 622]
″+++″ (≥50% = +++) | 324 (FLYDEIEAEV; listed as Homo sapiens) [compound 324]
″+++″ (≥50% = +++) | 441 (ALLENPKMEL; listed as Homo sapiens) [compound 441]
″++″ (≥20% = ++) | 333 (FLPDANSSV; listed as Homo sapiens) [compound 333]
″+++″ (≥50% = +++) | 396 (ALLPDLPAL; listed as Homo sapiens) [compound 396]
″+++″ (≥50% = +++) | 619 (ALQDRVPLA; listed as Homo sapiens) [compound 619]
″+++″ (≥50% = +++) | 468 (YLRSVGDGETV; listed as Homo sapiens) [compound 468]
″+++″ (≥50% = +++) | 635 (SLDSTLHAV; listed as Homo sapiens) [compound 635]
″+++″ (≥50% = +++) | 542 (RVWDISTVSSV; listed as Homo sapiens) [compound 542]
″++″ (≥20% = ++) | 400 (SLLTEQDLWTV; listed as Homo sapiens) [compound 400]
″+++″ (≥50% = +++) | 561 (YLQLTQSEL; listed as Homo sapiens) [compound 561]
″+++″ (≥50% = +++) | 572 (ALADLIEKELSV; listed as Homo sapiens) [compound 572]
″+++″ (≥50% = +++) | 478 (YLLHEKLNL; listed as Homo sapiens) [compound 478]
″++++″ (≥75% = ++++) | 568 (TLYDIAHTPGV; listed as Homo sapiens) [compound 568]

Peptide exchange (MHC class I binding score, peptide exchange yield) | Substance
″+++″ (≥50% = +++) | 464 (ALNDCIYSV; listed as Homo sapiens) [compound 464]
″+++″ (≥50% = +++) | 296 (FMEGAIIYV; listed as Homo sapiens) [compound 296]
″+++″ (≥50% = +++) | 448 (NLLETKLQL; listed as Homo sapiens) [compound 448]
″++″ (≥20% = ++) | 392 (ALLHPQGFEV; listed as Homo sapiens) [compound 392]
″++″ (≥20% = ++) | 459 (ALITEVVRL; listed as Homo sapiens) [compound 459]
″++++″ (≥75% = ++++) | 611 (YLLDDGTLVV; listed as Homo sapiens) [compound 611]
″+++″ (≥50% = +++) | 298 (VMITKLVEV; listed as Homo sapiens) [compound 298]
″+++″ (≥50% = +++) | 473 (AMATESILHFA; listed as Homo sapiens) [compound 473]
″+++″ (≥50% = +++) | 365 (YVIDQGETDVYV; listed as Homo sapiens) [compound 365]
″+++″ (≥50% = +++) | 508 (ILAQEQLVVGV; listed as Homo sapiens) [compound 508]
″+++″ (≥50% = +++) | 332 (YLISELEAA; listed as Homo sapiens) [compound 332]
″+++″ (≥50% = +++) | 263 (LLVSNLDFGV; listed as Homo sapiens) [compound 263]
″+++″ (≥50% = +++) | 575 (YLISQVEGHQV; listed as Homo sapiens) [compound 575]
″+++″ (≥50% = +++) | 472 (KLLEVSDDPQV; listed as Homo sapiens) [compound 472]
″++″ (≥20% = ++) | 565 (ALQETPTSV; listed as Homo sapiens) [compound 565]
″+++″ (≥50% = +++) | 407 (YLMDLINFL; listed as Homo sapiens) [compound 407]
″+++″ (≥50% = +++) | 476 (ALMERTGYSMV; listed as Homo sapiens) [compound 476]
″++″ (≥20% = ++) | 373 (SLLEDKGLAEV; listed as Homo sapiens) [compound 373]
